Assays:
[1] = target: HLA-A*24:03; experiment: IEDB peptide-MHC binding, purified MHC/direct/fluorescence; filed as Kd, often an IC50 or EC50 that approximates it; ≥ and ≤ were set here for values at or beyond the usual limits of such assays; details: source organism: Mycobacterium tuberculosis str. Haarlem
[2] = target: HLA-A*26:01; experiment: as above; details: source organism: Mycobacterium tuberculosis str. Haarlem
[3] = target: HLA-B*39:01; experiment: as above; details: source organism: Mycobacterium tuberculosis str. Haarlem
[4] = target: HLA-B*18:01; experiment: as above; details: source organism: Mycobacterium tuberculosis str. Haarlem
[5] = target: HLA-B*57:01; experiment: as above; details: source organism: Mycobacterium tuberculosis str. Haarlem
[6] = target: HLA-A*02:01; experiment: as above; details: source organism: Mycobacterium tuberculosis str. Haarlem
[7] = target: HLA-A*02:06; experiment: as above; details: source organism: Mycobacterium tuberculosis str. Haarlem
[8] = target: HLA-A*29:02; experiment: as above; details: source organism: Mycobacterium tuberculosis str. Haarlem
[9] = target: HLA-B*27:03; experiment: as above; details: source organism: Mycobacterium tuberculosis str. Haarlem
[10] = target: HLA-A*03:01; experiment: as above; details: source organism: Mycobacterium tuberculosis str. Haarlem
[11] = target: HLA-B*46:01; experiment: as above; details: source organism: Mycobacterium tuberculosis str. Haarlem
[12] = target: HLA-A*02:12; experiment: as above; details: source organism: Mycobacterium tuberculosis str. Haarlem
[13] = target: HLA-B*51:01; experiment: as above; details: source organism: Mycobacterium tuberculosis str. Haarlem
[14] = target: HLA-A*11:01; experiment: IEDB peptide-MHC binding, purified MHC/competitive/fluorescence; filed as Kd, often an IC50 or EC50 that approximates it; ≥ and ≤ were set here for values at or beyond the usual limits of such assays; details: source organism: Mycobacterium tuberculosis variant bovis BCG str. Pasteur 1173P2
[15] = target: HLA-B*27:05; experiment: as above; details: source organism: Mycobacterium tuberculosis variant bovis BCG str. Pasteur 1173P2
[16] = target: HLA-B*40:01; experiment: as above; details: source organism: Mycobacterium tuberculosis variant bovis BCG str. Pasteur 1173P2
[17] = target: HLA-B*53:01; experiment: as above; details: source organism: Mycobacterium tuberculosis variant bovis BCG str. Pasteur 1173P2
[18] = target: HLA-B*08:01; experiment: as above; details: source organism: Mycobacterium tuberculosis variant bovis BCG str. Pasteur 1173P2
[19] = target: HLA-B*14:02; experiment: as above; details: source organism: Mycobacterium tuberculosis variant bovis BCG str. Pasteur 1173P2
[20] = target: HLA-B*44:02; experiment: as above; details: source organism: Mycobacterium tuberculosis variant bovis BCG str. Pasteur 1173P2
[21] = target: HLA-A*30:01; experiment: as above; details: source organism: Mycobacterium tuberculosis variant bovis BCG str. Pasteur 1173P2
[22] = target: HLA-A*30:02; experiment: as above; details: source organism: Mycobacterium tuberculosis variant bovis BCG str. Pasteur 1173P2
[23] = target: HLA-A*23:01; experiment: as above; details: source organism: Mycobacterium tuberculosis variant bovis BCG str. Pasteur 1173P2
[24] = target: HLA-A*66:01; experiment: as above; details: source organism: Mycobacterium tuberculosis variant bovis BCG str. Pasteur 1173P2
[25] = target: HLA-B*58:01; experiment: as above; details: source organism: Mycobacterium tuberculosis variant bovis BCG str. Pasteur 1173P2
[26] = target: HLA-A*01:01; experiment: as above; details: source organism: Mycobacterium tuberculosis variant bovis BCG str. Pasteur 1173P2
[27] = target: HLA-A*11:01; experiment: IEDB peptide-MHC binding, purified MHC/competitive/fluorescence; ≥ and ≤ were set here for values at or beyond the usual limits of such assays; details: source organism: Homo sapiens
[28] = target: HLA-B*40:02; experiment: as above; details: source organism: Homo sapiens
[29] = target: HLA-B*53:01; experiment: as above; details: source organism: Homo sapiens
[30] = target: HLA-B*08:01; experiment: as above; details: source organism: Homo sapiens
[31] = target: HLA-A*24:02; experiment: as above; details: source organism: Homo sapiens
[32] = target: HLA-B*18:01; experiment: as above; details: source organism: Homo sapiens
[33] = target: HLA-B*14:02; experiment: as above; details: source organism: Homo sapiens
[34] = target: HLA-A*02:01; experiment: as above; details: source organism: Homo sapiens
[35] = target: HLA-B*44:03; experiment: as above; details: source organism: Homo sapiens
[36] = target: HLA-A*31:01; experiment: as above; details: source organism: Homo sapiens
[37] = target: HLA-A*29:02; experiment: as above; details: source organism: Homo sapiens
[38] = target: HLA-A*03:01; experiment: as above; details: source organism: Homo sapiens
[39] = target: HLA-B*07:02; experiment: as above; details: source organism: Homo sapiens
[40] = target: HLA-B*37:01; experiment: as above; details: source organism: Homo sapiens
[41] = target: HLA-A*25:01; experiment: as above; details: source organism: Homo sapiens
[42] = target: HLA-B*35:01; experiment: as above; details: source organism: Homo sapiens
[43] = target: HLA-B*58:01; experiment: as above; details: source organism: Homo sapiens
[44] = target: HLA-A*01:01; experiment: as above; details: source organism: Homo sapiens
[45] = target: HLA-A*68:02; experiment: as above; details: source organism: Homo sapiens
[46] = target: HLA-B*51:01; experiment: as above; details: source organism: Homo sapiens
[47] = target: HLA-B*44:02; experiment: as above; details: source organism: Homo sapiens
[48] = target: HLA-A*11:01; experiment: IEDB peptide-MHC binding, purified MHC/competitive/radioactivity; ≥ and ≤ were set here for values at or beyond the usual limits of such assays; details: source organism: Rhinovirus C

In the case of RVACRDVEV, the Kd [1] is reported as at least 20 µM, the Kd [2] is reported as at least 20 µM and the Kd [3] is reported as at least 20 µM. It also gave a Kd [4] of at least 20 µM, a Kd [5] of at least 20 µM and a Kd [6] of 0.254 µM. For the same sequence, the Kd [7] was 0.002 µM, the Kd [8] was at least 20 µM and the Kd [9] was at least 20 µM. It also gave a Kd [10] of at least 20 µM, a Kd [11] of at least 20 µM and a Kd [12] of 0.032 µM. The Kd [13] was at least 20 µM, the Kd [14] was at least 5 µM and the Kd [15] was at least 5 µM. It also gave a Kd [16] of at least 5 µM, a Kd [17] of at least 5 µM and a Kd [18] of at least 5 µM. For the same sequence, the Kd [19] was 3 µM, the Kd [20] was at least 5 µM and the Kd [21] was at least 5 µM. The Kd [22] was at least 5 µM, the Kd [23] was at least 5 µM and the Kd [24] was at least 5 µM. For the same sequence, the Kd [25] was at least 5 µM and the Kd [26] was at least 5 µM.
Sequence MVRVLTVIKEY has an IC50 [27] of 0.833 µM, an IC50 [28] of at least 20 µM and an IC50 [29] of at least 20 µM. For the same sequence, the IC50 [30] was at least 20 µM, the IC50 [31] was at least 20 µM and the IC50 [32] was 2.77 µM. For the same sequence, the IC50 [33] was at least 20 µM, the IC50 [34] was at least 20 µM and the IC50 [35] was at least 20 µM. It also gave an IC50 [36] of at least 20 µM, an IC50 [37] of 0.0053 µM and an IC50 [38] of at least 20 µM. For the same sequence, the IC50 [39] was at least 20 µM, the IC50 [40] was at least 20 µM and the IC50 [41] was 1.29 µM. For the same sequence, the IC50 [42] was 0.0205 µM, the IC50 [43] was at least 20 µM and the IC50 [44] was at least 20 µM. The IC50 [45] was at least 20 µM and the IC50 [46] was at least 20 µM.
FYYNAFHW showed an IC50 [31] of 2.61 µM and an IC50 [47] of at least 20 µM.
KYFNINYYK gave an IC50 [48] of 0.2 µM.

— the Immune Epitope Database (IEDB)
